Assay results taken from the supplement of paper PMC9112550, “Optimization of the antimicrobial peptide Bac7 by deep mutational scanning” (BMC Biology, 2022).

Each sequence was assayed on Escherichia coli TOP10 (assay: shrunken log2 fold change of peptide-encoding DNA abundance (4.5 h post-induction vs induction); higher = less antimicrobial activity (less host growth inhibition)). Conditions: time post-induction: 4.5 h; library: site-saturation at positions 5, 18, 19, 20.
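Further: peptides expressed intracellularly from a pBAD plasmid library in pooled LB shake-flask culture, induced with 0.3% L-arabinose, DNA abundance read by NGS, three biological replicates, DESeq2 with apeglm shrinkage.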

| Sequence | shrunken log2 fold change |
| --- | --- |
| RRIRGRPPRLPRPRPRPKVAPRP | 0.538 |
| RRIRCRPPRLPRPRPRPSEIPRP | -0.321 |
| RRIRDRPPRLPRPRPRPWATPRP | 0.0691 |
| RRIRPRPPRLPRPRPRPMRAPRP | 0.788 |
| RRIRPRPPRLPRPRPRPDWHPRP | -0.159 |
| RRIRGRPPRLPRPRPRPSKHPRP | -0.0347 |
| RRIRNRPPRLPRPRPRPFLMPRP | -0.0732 |
| RRIRVRPPRLPRPRPRPFIPPRP | -0.535 |
| RRIRWRPPRLPRPRPRPGMFPRP | 0.281 |
| RRIRVRPPRLPRPRPRPLDPPRP | -0.258 |
| RRIRIRPPRLPRPRPRPHNFPRP | -0.0684 |
| RRIRYRPPRLPRPRPRPFTYPRP | -0.529 |
| RRIRWRPPRLPRPRPRPPKFPRP | 0.419 |
| RRIRWRPPRLPRPRPRPAWEPRP | 0.534 |
| RRIRLRPPRLPRPRPRPEDPPRP | 0.0223 |
| RRIRYRPPRLPRPRPRPYFMPRP | -1.17 |
| RRIRNRPPRLPRPRPRPESQPRP | -0.00881 |
| RRIRQRPPRLPRPRPRPCEKPRP | -0.00192 |
| RRIRNRPPRLPRPRPRPCYFPRP | -0.408 |
| RRIRERPPRLPRPRPRPASCPRP | -0.211 |
| RRIRERPPRLPRPRPRPSPKPRP | 0.0298 |
| RRIRSRPPRLPRPRPRPGVPPRP | 0.318 |
| RRIRVRPPRLPRPRPRPCQLPRP | -0.202 |
| RRIRPRPPRLPRPRPRPAHEPRP | 0.356 |
| RRIRHRPPRLPRPRPRPAMKPRP | 0.0279 |

| Sequence | shrunken log2 fold change |
| --- | --- |
| RRIRGRPPRLPRPRPRPSKVPRP | -0.116 |
| RRIRIRPPRLPRPRPRPFYEPRP | -0.231 |
| RRIRVRPPRLPRPRPRPITLPRP | 1.44 |
| RRIRKRPPRLPRPRPRPICYPRP | 0.125 |
| RRIRFRPPRLPRPRPRPDDIPRP | -0.0253 |
| RRIRNRPPRLPRPRPRPDHTPRP | -0.0123 |
| RRIRARPPRLPRPRPRPFFVPRP | 0.149 |
| RRIRSRPPRLPRPRPRPMWCPRP | 0.136 |
| RRIRMRPPRLPRPRPRPNHRPRP | -0.113 |
| RRIRSRPPRLPRPRPRPIFCPRP | -0.0166 |
| RRIRQRPPRLPRPRPRPCVPPRP | -0.0509 |
| RRIRKRPPRLPRPRPRPIRIPRP | -0.0265 |
| RRIRLRPPRLPRPRPRPLMFPRP | -0.215 |
| RRIRCRPPRLPRPRPRPEWPPRP | 0.331 |
| RRIRQRPPRLPRPRPRPSNLPRP | -0.11 |
| RRIRNRPPRLPRPRPRPLYAPRP | -0.0693 |
| RRIRHRPPRLPRPRPRPFTTPRP | -0.0869 |
| RRIRERPPRLPRPRPRPQHCPRP | -0.23 |
| RRIRCRPPRLPRPRPRPYYRPRP | -0.301 |
| RRIRHRPPRLPRPRPRPVSGPRP | -0.188 |
| RRIRHRPPRLPRPRPRPENFPRP | -0.0249 |
| RRIRTRPPRLPRPRPRPAFFPRP | 0.0542 |
| RRIRNRPPRLPRPRPRPYWNPRP | -0.108 |
| RRIRSRPPRLPRPRPRPSPFPRP | -0.191 |
| RRIRERPPRLPRPRPRPPGTPRP | 0.152 |

| Sequence | shrunken log2 fold change |
| --- | --- |
| RRIRHRPPRLPRPRPRPNINPRP | -1.31 |
| RRIRMRPPRLPRPRPRPMWTPRP | 0.038 |
| RRIRWRPPRLPRPRPRPAHLPRP | 0.15 |
| RRIRPRPPRLPRPRPRPAEHPRP | 0.214 |
| RRIRIRPPRLPRPRPRPKCSPRP | 0.0422 |
| RRIRPRPPRLPRPRPRPYEQPRP | -0.116 |
| RRIRYRPPRLPRPRPRPVSTPRP | -0.511 |
| RRIRMRPPRLPRPRPRPHSQPRP | -0.00628 |
| RRIRVRPPRLPRPRPRPFEVPRP | -0.164 |
| RRIRCRPPRLPRPRPRPRVNPRP | 0.0551 |
| RRIRRRPPRLPRPRPRPKLDPRP | 0.523 |
| RRIRWRPPRLPRPRPRPGCKPRP | 0.123 |
| RRIRFRPPRLPRPRPRPGDMPRP | -0.311 |
| RRIRVRPPRLPRPRPRPEWLPRP | 0.0685 |
| RRIRVRPPRLPRPRPRPDLPPRP | -0.377 |
| RRIRSRPPRLPRPRPRPHQHPRP | -0.321 |
| RRIRARPPRLPRPRPRPHCKPRP | 0.0852 |
| RRIRQRPPRLPRPRPRPIKEPRP | -0.023 |
| RRIRIRPPRLPRPRPRPQGTPRP | -0.272 |
| RRIRNRPPRLPRPRPRPVQEPRP | -0.0428 |
| RRIRTRPPRLPRPRPRPMNMPRP | -0.24 |
| RRIRMRPPRLPRPRPRPMPMPRP | 0.194 |
| RRIRIRPPRLPRPRPRPNLRPRP | -0.117 |
| RRIRRRPPRLPRPRPRPRFFPRP | 0.507 |
| RRIRSRPPRLPRPRPRPKANPRP | 0.126 |

| Sequence | shrunken log2 fold change |
| --- | --- |
| RRIRKRPPRLPRPRPRPRFSPRP | 0.17 |
| RRIRVRPPRLPRPRPRPVIPPRP | -0.0964 |
| RRIRVRPPRLPRPRPRPRFCPRP | -0.0488 |
| RRIRGRPPRLPRPRPRPGTNPRP | 0.133 |
| RRIRRRPPRLPRPRPRPSKGPRP | -0.518 |
| RRIRDRPPRLPRPRPRPTLIPRP | 0.0896 |
| RRIRERPPRLPRPRPRPGQGPRP | -0.132 |
| RRIRDRPPRLPRPRPRPIAYPRP | -0.114 |
| RRIRARPPRLPRPRPRPVIPPRP | -0.296 |
| RRIRMRPPRLPRPRPRPVYNPRP | -0.17 |
| RRIRGRPPRLPRPRPRPMYSPRP | 0.208 |
| RRIRPRPPRLPRPRPRPHDRPRP | -0.0974 |
| RRIRGRPPRLPRPRPRPPHIPRP | 0.551 |
| RRIRARPPRLPRPRPRPVYHPRP | -0.321 |
| RRIRNRPPRLPRPRPRPPTTPRP | 0.19 |
| RRIRIRPPRLPRPRPRPLYDPRP | -1.02 |
| RRIRQRPPRLPRPRPRPPMGPRP | 0.187 |
| RRIRDRPPRLPRPRPRPGWSPRP | 0.104 |
| RRIRYRPPRLPRPRPRPLCFPRP | -0.727 |
| RRIRKRPPRLPRPRPRPRCGPRP | 0.451 |
| RRIRYRPPRLPRPRPRPIIFPRP | 0.0131 |
| RRIRDRPPRLPRPRPRPFVCPRP | -0.213 |
| RRIRIRPPRLPRPRPRPARTPRP | 0.0599 |
| RRIRYRPPRLPRPRPRPYNQPRP | -0.922 |
| RRIRNRPPRLPRPRPRPEYGPRP | -0.284 |

| Sequence | shrunken log2 fold change |
| --- | --- |
| RRIRERPPRLPRPRPRPPGRPRP | 0.146 |
| RRIRCRPPRLPRPRPRPNGGPRP | -0.00453 |
| RRIRGRPPRLPRPRPRPWNSPRP | -0.00154 |
| RRIRARPPRLPRPRPRPAEGPRP | 0.818 |
| RRIRDRPPRLPRPRPRPKCQPRP | -0.00187 |
| RRIRIRPPRLPRPRPRPKSYPRP | -0.605 |
| RRIRRRPPRLPRPRPRPGCHPRP | 0.119 |
| RRIRMRPPRLPRPRPRPKYCPRP | 0.0472 |
| RRIRDRPPRLPRPRPRPPIVPRP | -0.161 |
| RRIRFRPPRLPRPRPRPHVVPRP | -0.0249 |
| RRIRGRPPRLPRPRPRPRAFPRP | 0.793 |
| RRIRERPPRLPRPRPRPAYMPRP | -0.505 |
| RRIRHRPPRLPRPRPRPGKRPRP | -0.0157 |
| RRIRIRPPRLPRPRPRPSQAPRP | -0.244 |
| RRIRNRPPRLPRPRPRPNDVPRP | -0.00503 |
| RRIRRRPPRLPRPRPRPYTDPRP | -0.0165 |
| RRIRYRPPRLPRPRPRPAAGPRP | -0.197 |
| RRIRWRPPRLPRPRPRPVGRPRP | 0.0962 |
| RRIRQRPPRLPRPRPRPKWIPRP | -0.0524 |
| RRIRNRPPRLPRPRPRPNWAPRP | 0.0482 |
| RRIRHRPPRLPRPRPRPFSFPRP | -0.363 |
| RRIRQRPPRLPRPRPRPAWNPRP | -0.206 |
| RRIRARPPRLPRPRPRPADPPRP | 0.611 |
| RRIRDRPPRLPRPRPRPYYIPRP | -0.0955 |
| RRIRQRPPRLPRPRPRPLMWPRP | 0.0648 |
